Laboratory results as given in article PMC5473643, “A semisynthetic Atg3 reveals that acetylation promotes Atg3 membrane binding and Atg8 lipidation” (Nature Communications, 2017).

What was measured:
Details in all cases: both partners purified
[1] = target: T1, WT Atg3 (bacterially expressed and purified) (Saccharomyces cerevisiae, UniProt P40344 1-310); assay: MST; Monolith NT.115 (20% LED, 20% MST power); Atg8 labelled with Dye NT-647 NHS, Atg3 at different concentrations; 50 mM Tris-HCl pH 7.4, 150 mM NaCl, 10 mM MgCl2, 0.05% Tween-20; apparent KD, mean of three independent experiments
T1 construct: Atg3, E2-like enzyme of yeast Saccharomyces cerevisiae (310 amino acids); 'the region coding WT Atg3' inserted into pGEX-6P-1; GST excised with PreScission protease; residues of the vector may remain at the N-terminus (surmised); also called Atg3 WT; E. coli expressed WT Atg3; source: E. coli BL21 (DE3), purified (glutathione-Sepharose 4B, PreScission protease, Mono Q, Superdex 200)
T1 sequence (looked up): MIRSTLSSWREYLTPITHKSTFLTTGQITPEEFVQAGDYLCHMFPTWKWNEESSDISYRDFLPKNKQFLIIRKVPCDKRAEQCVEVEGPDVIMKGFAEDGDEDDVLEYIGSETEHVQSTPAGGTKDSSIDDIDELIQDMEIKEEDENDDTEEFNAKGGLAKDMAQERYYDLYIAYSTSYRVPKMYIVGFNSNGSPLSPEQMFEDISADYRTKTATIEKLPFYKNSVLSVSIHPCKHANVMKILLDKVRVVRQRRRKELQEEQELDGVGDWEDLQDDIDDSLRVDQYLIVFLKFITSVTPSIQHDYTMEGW

[2] = target: T2, semi-synthetic Atg3 K19ac-K48ac (Saccharomyces cerevisiae, UniProt P40344 1-310, Gln27 mutated to Cys27 | S54C, acetyl-lysine at K19 and K48); assay: as above
T2 construct: Atg3 of yeast Saccharomyces cerevisiae, Atg3(1-310), 310 amino acids, with Gln27 and Ser54 mutated to Cys for ligation; also called K19/K48-diacetylated Atg3; 2ac
T2 sequence (looked up): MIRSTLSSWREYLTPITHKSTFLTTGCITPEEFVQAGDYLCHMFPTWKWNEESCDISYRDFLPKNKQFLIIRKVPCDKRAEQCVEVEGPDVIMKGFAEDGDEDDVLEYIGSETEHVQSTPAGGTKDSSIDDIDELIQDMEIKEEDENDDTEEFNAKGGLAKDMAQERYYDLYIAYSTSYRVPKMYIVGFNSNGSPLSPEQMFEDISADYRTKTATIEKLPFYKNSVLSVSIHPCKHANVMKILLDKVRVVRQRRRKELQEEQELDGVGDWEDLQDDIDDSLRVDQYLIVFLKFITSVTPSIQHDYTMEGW

[3] = target: T1, WT Atg3 (bacterially expressed and …); assay: SPR; Biacore T200, 25 °C; Atg3 immobilised by amine coupling on CM5 chip (400 RU); Atg8 injected at 30 μl/min up to 3,200 nM; 10 mM phosphate buffer, 2.7 mM KCl, 137 mM NaCl, 0.05% surfactant P20, pH 7.4
[4] = target: T2, semi-synthetic Atg3 K19ac-K48ac; assay: as above

Kd [1]: 520 ± 70 nM | Kd [2]: 490 ± 80 nM | Kd [3]: 730 ± 50 nM | Kd [4]: 650 ± 70 nM
B1: Atg8 (bacterially expressed and purified) (natural protein, yeast, UniProt P38182 1-117, looked up)
chain: MKSTFKSEYPFEKRKAESERIADRFKNRIPVICEKAEKSDIPEIDKRKYLVPADLTVGQFVYVIRKRIMLPPEKAIFIFVNDTLPPTAALMSAIYQEHKDKDGFLYVTYSGENTFGR
notes: Atg8 of yeast; 'the region coding ; Atg8' inserted into pGEX-6P-1; In the MST experiment this Atg8 was labelled on primary amines with Dye NT-647 NHS; also called recombinant Atg8; purified Atg8; source: E. coli BL21 (DE3), purified (glutathione-Sepharose 4B, PreScission protease, Mono Q, Superdex 200)
